According to patent US10286050B2 (The United States of America, as represented by the …, priority 2013, dated 2019):
“Also recorded” adds a separate entry of the source.

Experiments:
[1] = Storage stability of vialed product; type: physicochemical
Description: Stability and Storage: KLH-HMW is stable for at least 12 months when stored at 2 to 8° C.
(§1) Stability and Storage: The finished injectable dosage forms are stored in the freezer (−70′C) for long-term storage. Intact vials are stable for at least 6 months when stored at controlled room temperature (15° C.-30° C.) or in the refrigerator (2° C.-8° C.), and for at least 36 months when stored in the freezer (−10° C. to −25° C. and −70° C.). The peptide vial contains no preservatives; once the peptide vial is entered, unused peptide solution is discarded after 3 hours.
as §1, with “(−70° C.)” for “(−70′C)”, “C.), at least 9 months when stored” for “C.) or”

[2] = biological target: HLA-A2 (Homo sapiens, UniProt P04439, D140Y/D185E/D98H/E176V/E277Q/G131W/G231S/I119V/I121R/I166T/I218V/L300P/L318F/N151K/N90K/P208A/P217A/Q86G/Q94H/R138H/R169H/T345S); conditions: cited from earlier work
[3] = system: A2K^b transgenic mice (expressing human HLA-A*0201); conditions: cited from earlier work
[4] = system: human T cells; conditions: cited from earlier work; for recognition of peptide-pulsed targets by peptide-specific human T cells: human T cells specific for the named peptide
[5] = controlled room temperature (15° C.-30° C.)
[6] = freezer (−10° C. to −25° C. and −70° C.)

FLRNFSLMV [TARP 29-37-9V]
stability of intact vials [1, 5]: at least 6 months
stability of intact vials [1, 6]: at least 36 months
stability of intact vials ([1]; refrigerator (2° C.-8° C.)): at least 9 months
change of binding affinity to HLA-A2 by epitope enhancement ([2]; amino acid substitution versus wild-type peptide): lower binding affinity to HLA-A2 than TARP29-37-3A; also recorded: did enhance the binding affinity compared with the wild-type peptide
percentage of TARP-specific CD8+ T cells ([3]; A2K^b transgenic mice, versus wild type sequence): higher percentage of TARP-specific CD8^+ T cells than the wild type sequence
recognition of peptide-pulsed targets by peptide-specific human T cells [4]: recognized targets pulsed with all three peptides equally well
immunogenicity in human T cells ([4]; human cells): immunogenic

FVFLRNFSL [TARP 27-35]
stability of intact vials [1, 5]: at least 6 months
stability of intact vials [1, 6]: at least 36 months
stability of intact vials ([1]; refrigerator (2° C.-8° C.)): at least 6 months
binding affinity relative to TARP 29-37 ([2]; HLA-A2 epitopes, fold greater than TARP 29-37): 10 times
level of CD8+ T cell response ([3]; A2K^b transgenic mice): higher level of CD8+ T cell response than TARP29-37
immunogenicity in A2K^b transgenic mice ([3]; dendritic cells pulsed with the peptides or DNA encoding the peptides): immunogenic
recognition of peptide-pulsed targets by peptide-specific human T cells [4]: recognized targets pulsed with that sequence
